T1: human C1s mutant M15 (S360N) (human, UniProt P09871 16-688)
T1 construct: The entry is the mutant itself
T1 sequence: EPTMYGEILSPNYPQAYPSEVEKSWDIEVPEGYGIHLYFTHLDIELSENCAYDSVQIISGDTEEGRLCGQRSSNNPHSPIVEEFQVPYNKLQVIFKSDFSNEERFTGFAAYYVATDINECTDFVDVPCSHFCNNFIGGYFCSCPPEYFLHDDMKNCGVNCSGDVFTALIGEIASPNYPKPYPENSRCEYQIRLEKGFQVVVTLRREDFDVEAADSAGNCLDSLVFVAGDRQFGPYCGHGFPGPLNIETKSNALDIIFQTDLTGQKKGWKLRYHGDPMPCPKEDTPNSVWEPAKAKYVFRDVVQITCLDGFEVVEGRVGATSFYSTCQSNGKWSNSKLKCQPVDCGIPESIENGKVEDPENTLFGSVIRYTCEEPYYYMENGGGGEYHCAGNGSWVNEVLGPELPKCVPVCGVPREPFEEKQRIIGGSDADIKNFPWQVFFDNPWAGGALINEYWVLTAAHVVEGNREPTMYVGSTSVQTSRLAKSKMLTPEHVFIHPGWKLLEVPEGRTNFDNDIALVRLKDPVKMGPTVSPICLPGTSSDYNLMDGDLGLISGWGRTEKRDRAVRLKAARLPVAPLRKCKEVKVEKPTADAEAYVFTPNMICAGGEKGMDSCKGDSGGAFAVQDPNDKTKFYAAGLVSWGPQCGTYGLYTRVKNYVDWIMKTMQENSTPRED

T2: human C1s mutant M18 (V288T) (human, UniProt P09871 16-688)
T2 construct: The entry is the mutant itself
T2 sequence: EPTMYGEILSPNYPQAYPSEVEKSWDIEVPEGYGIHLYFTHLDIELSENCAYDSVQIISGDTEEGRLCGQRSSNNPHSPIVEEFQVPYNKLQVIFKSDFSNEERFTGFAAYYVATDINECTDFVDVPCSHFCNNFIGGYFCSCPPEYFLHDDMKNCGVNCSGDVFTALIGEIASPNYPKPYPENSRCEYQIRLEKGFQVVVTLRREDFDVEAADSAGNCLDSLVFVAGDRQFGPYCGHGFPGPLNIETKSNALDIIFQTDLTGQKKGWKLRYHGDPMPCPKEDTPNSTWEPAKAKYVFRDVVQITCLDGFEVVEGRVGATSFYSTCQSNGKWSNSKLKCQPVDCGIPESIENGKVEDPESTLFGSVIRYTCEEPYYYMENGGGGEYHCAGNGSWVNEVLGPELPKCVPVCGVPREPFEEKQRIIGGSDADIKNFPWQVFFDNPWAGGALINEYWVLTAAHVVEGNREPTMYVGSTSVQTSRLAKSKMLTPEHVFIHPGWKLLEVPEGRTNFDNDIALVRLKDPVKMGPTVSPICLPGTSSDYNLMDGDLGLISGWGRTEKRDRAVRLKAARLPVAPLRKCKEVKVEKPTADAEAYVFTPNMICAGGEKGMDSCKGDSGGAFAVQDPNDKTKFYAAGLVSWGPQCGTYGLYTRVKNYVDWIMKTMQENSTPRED

T3: human C1s mutant M4 (P280A & E282K) (human, UniProt P09871 16-688)
T3 construct: The entry is the mutant itself
T3 sequence: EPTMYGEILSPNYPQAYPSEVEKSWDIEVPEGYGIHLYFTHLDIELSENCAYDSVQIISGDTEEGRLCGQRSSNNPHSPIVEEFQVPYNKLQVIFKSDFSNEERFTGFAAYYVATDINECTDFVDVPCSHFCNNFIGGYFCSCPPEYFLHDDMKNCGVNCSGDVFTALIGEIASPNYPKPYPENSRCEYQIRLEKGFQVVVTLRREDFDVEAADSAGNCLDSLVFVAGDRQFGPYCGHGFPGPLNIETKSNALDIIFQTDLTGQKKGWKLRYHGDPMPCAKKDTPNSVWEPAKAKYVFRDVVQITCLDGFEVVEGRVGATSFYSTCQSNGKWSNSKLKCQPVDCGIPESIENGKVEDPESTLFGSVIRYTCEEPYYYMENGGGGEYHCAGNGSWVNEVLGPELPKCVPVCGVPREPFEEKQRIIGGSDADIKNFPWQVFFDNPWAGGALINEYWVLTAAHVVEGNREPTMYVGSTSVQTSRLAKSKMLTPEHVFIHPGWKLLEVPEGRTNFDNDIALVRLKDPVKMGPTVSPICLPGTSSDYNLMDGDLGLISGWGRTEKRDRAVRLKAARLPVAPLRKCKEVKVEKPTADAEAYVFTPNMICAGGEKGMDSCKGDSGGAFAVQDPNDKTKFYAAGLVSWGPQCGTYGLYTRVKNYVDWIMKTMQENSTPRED


What was measured:
[1] = target: T1, human C1s mutant M15 (S360N); assay: ELISA, plate coated with human C1s mutant M15: S360N, OD450nm
Method: (§1) ELISA was carried out by first coating 96-well plates with 200 ng/well of full-length or truncated C1s proteins overnight. The next morning, plates were blocked with SuperBlock T20 blocking buffer (Thermo Scientific 37536) for 1 h with gentle shaking. Then, various concentrations of anti-C1s antibodies diluted in SuperBlock T20 blocking buffer were added to the plates and incubated for 1 h with gentle shaking. Mouse IgG (Sigma-Aldrich 15381) and human IgG1 (BioXCell BP0297) were used as negative controls. The plates were washed before incubating with HRP conjugated secondary antibodies diluted in SuperBlock T20 blocking buffer (goat anti-mouse IgG (H+L) cross-adsorbed secondary antibody HRP (Invitrogen G-21040) or goat anti-human IgG antibody, HRP conjugate (Millipore AP309P)) for 1 h with gentle shaking. At last, the plates were washed and color developed with ELISA liquid HRP substrate (Sigma-Aldrich), followed by stopping the reaction with addition of 1M H₂SO₄ in the same volume as the ELISA liquid substrate. Bound antibody was measured by absorbance at OD₄₅₀ₙₘ.
(§2) Binding of anti-C1s antibodies to mutants M1-M20 of human C1s was measured by ELISA as described in Example 4, and results are shown in FIGS. 6B-6U. All anti-C1s humanized variants including hz2-7(H1L2), hz2-8(H1L2 G80A) and hz2-8(H1L2 G80A/T82A) maintained strong binding properties to the majority (16 out of 20) of C1s mutants including M1 (FIG. 6B), M2 (FIG. 6C), M3 (FIG. 6D). M4 (FIG. 6E), M7 (FIG. 6H), M8 (FIG. 6I), M10 (FIG. 6K), M11 (FIG. 6L), M12 (FIG. 6M), M13 (FIG. 6N), M15 (FIG. 6P), M16 (FIG. 6Q), M17 (FIG. 6R), M18 (FIG. 6S), M19 (FIG. 6T) and M20 (FIG. 6U).

[2] = target: T2, human C1s mutant M18 (V288T); assay: ELISA, plate coated with human C1s mutant M18: V288T, OD450nm
Method: as §1, §2

[3] = target: T3, human C1s mutant M4 (P280A & E282K); assay: ELISA, plate coated with human C1s mutant M4: P280A, E282K, OD450nm
Method: as §1, §2

| EC50 [1] [ng/mL] | EC50 [2] [ng/mL] | EC50 [3] [µg/mL] | Binder |
| --- | --- | --- | --- |
| 4 | 3 | 0.01 | Anti-C1s antibody hz2-8 (H1L2 G80A) (antibody, V domains shown, Humanized variant with G80A in HC CDR2 (already in the entry), human IgG1 / kappa) VH: QVQLVQSGAEVKKPGASVKVSCKASGFNIKEYYMHWVRQAPEQGLEWMGWIDPENADTIYAQKFQGRVTITADTSTNTAYMELSSLRSEDTAVYYCARSRLFFAYWGQGTLVTVSS VL: DIQMTQSPKSLSASVGDRVTITCRASQDVRTALDWYQQKPGQSPKLLIYSASYRYSGVPSRFSGSGSGTDFTLTISSLQPEDFATYYCQQQYTTPYTFGQGTKLEIKR |
| 5 | 4 | 0.01 | Anti-C1s antibody hz2-8 (H1L2 G80A/T82A) (antibody, V domains shown, Humanized variant with G80A and T82A in HC CDR2 (already in the entry), human IgG1 / kappa) VH: QVQLVQSGAEVKKPGASVKVSCKASGFNIKEYYMHWVRQAPEQGLEWMGWIDPENADAIYAQKFQGRVTITADTSTNTAYMELSSLRSEDTAVYYCARSRLFFAYWGQGTLVTVSS VL: DIQMTQSPKSLSASVGDRVTITCRASQDVRTALDWYQQKPGQSPKLLIYSASYRYSGVPSRFSGSGSGTDFTLTISSLQPEDFATYYCQQQYTTPYTFGQGTKLEIKR |
| 3 | 5 | 0.013 | Anti-C1s antibody hz2-7(H1L2) (antibody, V domains shown, Humanized, human IgG1 / kappa; also called hz2-7(1L2)) VH: EVQLLESGGGLVQPGGSLRLSCAASGFTFSNYFMNWVRQAPGKGLEWVSEIRLKFTNYATHYADSVKGRFTISRDDSKSTLYLQMNSLRAEDTAVYYCTRDYGSRNGYFDYWGQGTLVTVSS VL: DIVMTQTPLSLPVTPGEPASISCRSSKSLLHSNGNTFLYWFLQKPGQSPQLLIYRMSNLASGVPDRFSGSGSGTDFTLKISRVEAEDVGVYYCMQHLEYPYTFGGGTKLEIKR |

— patent US20230051715A1 (MABWELL THERAPEUTICS, published 2023)
